Assay results taken from US20170355774A1 (Regeneron, published 2017).

What was measured:
[1] = biological target: T1, human GITR (amino acids M1-V241, NCBI Accession #NP_004186.1) expressed on cells (human, UniProt Q9Y5U5 26-241); assay: cell-based or functional assay
T1 sequence: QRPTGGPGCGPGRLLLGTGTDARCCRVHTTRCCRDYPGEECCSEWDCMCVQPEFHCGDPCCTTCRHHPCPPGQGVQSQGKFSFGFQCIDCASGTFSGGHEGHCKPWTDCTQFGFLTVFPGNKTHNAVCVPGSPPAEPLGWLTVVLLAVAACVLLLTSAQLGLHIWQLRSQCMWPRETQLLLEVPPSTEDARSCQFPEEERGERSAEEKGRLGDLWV

[2] = biological target: T1, human GITR (amino acids M1-V241, NCBI …); assay: cell-based or functional assay; remark: listed apart in the source
[3] = biological target: T1, human GITR (amino acids M1-V241, NCBI …); assay: ECL cell binding, hGITR/HEK293-D9
In short: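 Cells blocked with 2% BSA, then antibody dilutions from 1.7 pM to 100 nM added 1 h at RT. Bound antibody detected with SULFO-TAG anti-human kappa antibody, electrochemiluminescence read, RLU fitted by four-parameter logistic; signal at 100 nM on hGITR cells versus parental cells also recorded.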

hGITR.mmh = biological target: T2, hGITR.mmh (human); assay: SPR 37C, mAb capture
T2 construct: soluble monomeric construct; also called human (h) GITR.mmh; monomeric human GITR
T2 chain: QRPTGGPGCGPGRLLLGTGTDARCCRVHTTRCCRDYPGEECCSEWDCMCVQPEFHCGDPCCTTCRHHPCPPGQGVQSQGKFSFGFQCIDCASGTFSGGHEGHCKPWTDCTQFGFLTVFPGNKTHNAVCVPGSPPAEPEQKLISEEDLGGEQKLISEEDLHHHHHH

hGITR.mFc = biological target: T3, hGITR.mFc (human); assay: SPR 37C, mAb capture
T3 construct: soluble dimeric construct with mouse Fc; also called dimeric human GITR
T3 chain: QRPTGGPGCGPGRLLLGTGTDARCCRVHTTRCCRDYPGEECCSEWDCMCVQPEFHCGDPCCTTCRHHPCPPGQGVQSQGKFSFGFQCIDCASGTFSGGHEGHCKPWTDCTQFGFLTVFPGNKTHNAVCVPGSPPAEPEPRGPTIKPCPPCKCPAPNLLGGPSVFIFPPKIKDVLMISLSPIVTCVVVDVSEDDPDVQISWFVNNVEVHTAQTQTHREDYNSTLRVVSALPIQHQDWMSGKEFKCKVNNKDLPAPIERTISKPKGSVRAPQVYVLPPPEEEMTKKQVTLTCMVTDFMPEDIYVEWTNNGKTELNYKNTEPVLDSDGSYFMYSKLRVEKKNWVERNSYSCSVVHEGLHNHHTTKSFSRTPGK

mfGITR.mmh = biological target: T4, mfGITR.mmh (Macaca fasicularis); assay: SPR 37C, mAb capture
T4 construct: soluble monomeric construct; also called Macaca fasicularis (mf) GITR.mmh; cynomolgus GITR protein
T4 chain: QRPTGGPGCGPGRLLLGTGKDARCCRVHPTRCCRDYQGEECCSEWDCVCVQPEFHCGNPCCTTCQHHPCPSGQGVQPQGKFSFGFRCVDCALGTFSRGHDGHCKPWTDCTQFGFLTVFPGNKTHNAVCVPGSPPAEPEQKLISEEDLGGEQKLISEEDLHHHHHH

[4] = biological target: T1, human GITR (amino acids M1-V241, NCBI …); assay: cell-based or functional assay; remark: listed apart in the source
[5] = biological target: T1, human GITR (amino acids M1-V241, NCBI …); assay: cell-based or functional assay; remark: listed apart in the source
[6] = biological target: T1, human GITR (amino acids M1-V241, NCBI …); assay: cell-based or functional assay; remark: listed apart in the source

B1: H1H14512P (antibody, human IgG1, V domains shown)
VH: QVQLVESGGGVVQPGRSLRLSCAVSGFTLSSYGMDWVRQAPGKGLEWVAVIWYDGSNKYYSDSVKGRFTISRDNSKNTLFLQMNSLRADDTAVYYCARDGELGLDYYSGMDVWGQGTTVTVSS
VL: DIQMTQSPSSLSASVGDRVTITCRASQDIRNDLGWYQQKPGKAPKRLIYGASSLQSGVPSRFSGSGSGTEFTLTISSLQPEDFATYYCLQLNSYPRTFGQGTKVEIK
notes: human IgG1 (H1H)
[1]
  % Activation, NF-kB-Luc, non-anchored: 20%
  % Blocking, NF-kB-Luc, non-anchored: 100%
  EC50, hGITR activation, NF-kB-Luc, non-anchored: 1200 pM
  IC50, blocking of hGITRL stimulation, NF-kB-Luc, non-anchored: 700 pM
[2]
  EC50, hGITR activation, NF-kB-Luc, FcgR anchored: 20 pM
  Fold Activation over basal signal, NF-kB-Luc, FcgR anchored: 7 fold
  IC50, blocking of hGITRL stimulation, NF-kB-Luc, FcgR anchored: 100 pM
[3]
  Average Signal (RLU) at 100 nM: 4620 RLU
  EC50: 250 pM

B2: H4H14475P (antibody, human IgG4, V domains shown)
VH: QVQLVESGGGVVQPGRSLRLSCAASGTIFSTHGMHWVRQAPGKGLEWVAVISYDGNKKYYAGSVKGRFTISRDNSKNTLYLQMNDVRSEDTAVYHCTTDITGITDYWGQGTLVTVSS
VL: DIQMTQSPSSLSASVGDRVTITCRASQGIGNDLGWYQQKLGKAPKRLIYAASSLESGVPSRFSGSGSGTEFILTISSLQAEDFATYYCLQHNGFPTFGQGTKVEIK
notes: human IgG4 (H4H)
hGITR.mmh
  Kd: 45700 pM
  koff: 0.014 s⁻¹
  kon: 307000 M⁻¹ s⁻¹
  t½: 0.8 min
hGITR.mFc
  Kd: 847 pM
  koff: 0.00135 s⁻¹
  kon: 1.6e+06 M⁻¹ s⁻¹
  t½: 8.5 min
mfGITR.mmh
  Kd: 41700 pM
  koff: 0.00765 s⁻¹
  kon: 183000 M⁻¹ s⁻¹
  t½: 1.5 min
[1]
  % Activation, NF-kB-Luc, non-anchored: 70%
  % Blocking, NF-kB-Luc, non-anchored: -2%
  EC50, hGITR activation, NF-kB-Luc, non-anchored: 1000 pM
[2]
  EC50, hGITR activation, NF-kB-Luc, FcgR anchored: 40 pM
  Fold Activation over basal signal, NF-kB-Luc, FcgR anchored: 8 fold
  IC50, blocking of hGITRL stimulation, NF-kB-Luc, FcgR anchored: 200 pM
[4]
  fold activation, T-cell proliferation, plate-bound Ab 10.6 nM, donor 1: 0 fold
  fold activation, T-cell proliferation, plate-bound Ab 10.6 nM, donor 2: 2 fold
  fold activation, T-cell proliferation, plate-bound Ab 10.6 nM, donor 3: 2 fold
  fold activation, T-cell proliferation, plate-bound Ab 10.6 nM, donor 4: 2 fold
  fold activation, T-cell proliferation, plate-bound Ab 10.6 nM, donor 5: 2 fold
  fold activation, T-cell proliferation, plate-bound Ab 10.6 nM, donor 6: 12 fold
  fold activation, T-cell proliferation, plate-bound Ab 10.6 nM, donor 7: 1 fold
  fold activation, T-cell proliferation, plate-bound Ab 10.6 nM, donor 8: 0 fold
  fold activation, T-cell proliferation, plate-bound Ab 10.6 nM, mean: 3 fold
[5]
  fold activation, T-cell proliferation, 33 nM, FcgR anchored, donor 1: 1 fold
  fold activation, T-cell proliferation, 33 nM, FcgR anchored, donor 2: 1.3 fold
  fold activation, T-cell proliferation, 33 nM, FcgR anchored, donor 3: 1.3 fold
  fold activation, T-cell proliferation, 33 nM, FcgR anchored, donor 4: 1.6 fold
  fold activation, T-cell proliferation, 33 nM, FcgR anchored, donor 5: 1.5 fold
  fold activation, T-cell proliferation, 33 nM, FcgR anchored, mean: 1.3 fold
[6]
  fold activation, T-cell proliferation, 22 nM, non-anchored, donor 1: 0.7 fold
  fold activation, T-cell proliferation, 22 nM, non-anchored, donor 2: 1.1 fold
  fold activation, T-cell proliferation, 22 nM, non-anchored, donor 3: 0.8 fold
  fold activation, T-cell proliferation, 22 nM, non-anchored, donor 4: 0.8 fold
  fold activation, T-cell proliferation, 22 nM, non-anchored, mean: 0.9 fold
[3]
  Average Signal (RLU) at 100 nM: 7500 RLU
  EC50: 8000 pM

B3: H4H14516P (antibody, human IgG4, V domains shown)
VH: EVQLVESGGGLVQPGGSLRLSCAASGFTFSNYEMYWVRQAPGKGLEWVSYISSSGTTIYYADSVKGRFSVSRENARSSLYLQMNSLRVEDSAVYFCAKYNWNSFYGLDVWGQGTTVTVSS
VL: AIQMTQSPSSLSASVGDRVTITCRASQDIRNDLGWYQQKPGKAPKLLISAASSLQGGVPSRFSGSGSGTDFTLTISSLQPADFATYYCLQEYNYALTFGGGTKVEIK
notes: human IgG4 (H4H)
hGITR.mmh
  Kd: 32700 pM
  koff: 0.00738 s⁻¹
  kon: 225000 M⁻¹ s⁻¹
  t½: 1.6 min
hGITR.mFc
  Kd: 1080 pM
  koff: 0.00181 s⁻¹
  kon: 1.68e+06 M⁻¹ s⁻¹
  t½: 6.4 min
mfGITR.mmh
  Kd: 58700 pM
  koff: 0.0112 s⁻¹
  kon: 190000 M⁻¹ s⁻¹
  t½: 1 min
[1]
  % Activation, NF-kB-Luc, non-anchored: 45%
  % Blocking, NF-kB-Luc, non-anchored: 70%
  EC50, hGITR activation, NF-kB-Luc, non-anchored: 800 pM
  IC50, blocking of hGITRL stimulation, NF-kB-Luc, non-anchored: 2300 pM
[4]
  fold activation, T-cell proliferation, plate-bound Ab 10.6 nM, donor 1: 1 fold
  fold activation, T-cell proliferation, plate-bound Ab 10.6 nM, donor 2: 4 fold
  fold activation, T-cell proliferation, plate-bound Ab 10.6 nM, donor 3: 4 fold
  fold activation, T-cell proliferation, plate-bound Ab 10.6 nM, donor 4: 12 fold
  fold activation, T-cell proliferation, plate-bound Ab 10.6 nM, donor 5: 4 fold
  fold activation, T-cell proliferation, plate-bound Ab 10.6 nM, donor 6: 14 fold
  fold activation, T-cell proliferation, plate-bound Ab 10.6 nM, donor 7: 4 fold
  fold activation, T-cell proliferation, plate-bound Ab 10.6 nM, donor 8: 1 fold
  fold activation, T-cell proliferation, plate-bound Ab 10.6 nM, mean: 5 fold
[5]
  fold activation, T-cell proliferation, 33 nM, FcgR anchored, donor 1: 1.2 fold
  fold activation, T-cell proliferation, 33 nM, FcgR anchored, donor 2: 0.9 fold
  fold activation, T-cell proliferation, 33 nM, FcgR anchored, donor 3: 1.2 fold
  fold activation, T-cell proliferation, 33 nM, FcgR anchored, donor 4: 1.3 fold
  fold activation, T-cell proliferation, 33 nM, FcgR anchored, donor 5: 1.1 fold
  fold activation, T-cell proliferation, 33 nM, FcgR anchored, mean: 1.1 fold
[6]
  fold activation, T-cell proliferation, 22 nM, non-anchored, donor 1: 0.7 fold
  fold activation, T-cell proliferation, 22 nM, non-anchored, donor 2: 1.2 fold
  fold activation, T-cell proliferation, 22 nM, non-anchored, donor 3: 1 fold
  fold activation, T-cell proliferation, 22 nM, non-anchored, donor 4: 0.9 fold
  fold activation, T-cell proliferation, 22 nM, non-anchored, mean: 0.9 fold
[3]
  Average Signal (RLU) at 100 nM: 10300 RLU
  EC50: 700 pM
